Results taken from patent publication US20110142851A1 (EMERGENT PRODUCT DEVELOPMENT SEATTLE, published 2011).
Like-named read-outs stand apart in the source and are kept apart here. Each block holds one binder with its values, some of them ahead of it.

Assays:
[1] = target: T1, recombinant human soluble IL6 receptor (human, UniProt P08887 20-358); experiment: ELISA, Xceptor captured by anti-human Fc
T1 construct: also called sIL6R; sIL-6R
T1 sequence (looked up): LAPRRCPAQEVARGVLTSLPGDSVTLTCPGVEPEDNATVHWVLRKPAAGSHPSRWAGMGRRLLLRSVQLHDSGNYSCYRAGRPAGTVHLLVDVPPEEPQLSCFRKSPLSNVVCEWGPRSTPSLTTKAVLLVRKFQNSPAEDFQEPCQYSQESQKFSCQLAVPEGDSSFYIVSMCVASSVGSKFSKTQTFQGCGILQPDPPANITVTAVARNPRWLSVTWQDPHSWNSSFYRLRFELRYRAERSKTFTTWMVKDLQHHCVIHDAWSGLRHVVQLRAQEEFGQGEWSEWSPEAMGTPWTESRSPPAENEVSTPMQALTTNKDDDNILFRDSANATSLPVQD

[2] = target: T2, hu HIL6 Fc dimer (dimeric human HIL6/mouse IgG Fc fusion protein) (human); experiment: SPR Biacore T100, binder captured by anti-human Fc
T2 construct: also called human hyper-IL6 (IL6R-IL6-mIgG); dimeric HIL6
T2 chain: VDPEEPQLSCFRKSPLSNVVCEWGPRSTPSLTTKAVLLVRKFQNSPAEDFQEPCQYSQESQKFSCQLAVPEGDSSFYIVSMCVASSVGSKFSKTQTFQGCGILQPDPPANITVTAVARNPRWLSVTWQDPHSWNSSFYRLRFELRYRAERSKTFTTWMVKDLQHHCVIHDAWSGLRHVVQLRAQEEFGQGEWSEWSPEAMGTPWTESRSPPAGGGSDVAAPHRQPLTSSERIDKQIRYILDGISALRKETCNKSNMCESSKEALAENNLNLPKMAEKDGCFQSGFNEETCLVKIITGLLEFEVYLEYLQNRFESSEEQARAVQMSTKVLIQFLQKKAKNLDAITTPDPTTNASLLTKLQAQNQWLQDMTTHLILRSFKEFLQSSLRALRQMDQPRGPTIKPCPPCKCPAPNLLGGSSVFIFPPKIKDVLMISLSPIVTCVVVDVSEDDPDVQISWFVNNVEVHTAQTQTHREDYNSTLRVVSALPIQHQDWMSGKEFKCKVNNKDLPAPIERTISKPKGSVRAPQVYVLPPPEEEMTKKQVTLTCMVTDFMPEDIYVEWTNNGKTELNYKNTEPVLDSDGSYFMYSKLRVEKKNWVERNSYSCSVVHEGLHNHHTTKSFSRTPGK

[3] = target: T3, recombinant human TNF-α (human, UniProt P01375 77-233); experiment: SPR Biacore T100, binder captured by anti-human Fc
T3 construct: also called rhTNFα
T3 sequence (P01375 77-233 limits assumed): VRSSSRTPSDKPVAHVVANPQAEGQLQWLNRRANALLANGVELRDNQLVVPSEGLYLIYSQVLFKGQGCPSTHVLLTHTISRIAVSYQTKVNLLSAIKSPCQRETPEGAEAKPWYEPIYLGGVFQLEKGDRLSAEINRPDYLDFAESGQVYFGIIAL

[4] = target: T4, hu HIL6 AFH monomer (human); experiment: SPR Biacore T100, binder captured by anti-human Fc
T4 chain: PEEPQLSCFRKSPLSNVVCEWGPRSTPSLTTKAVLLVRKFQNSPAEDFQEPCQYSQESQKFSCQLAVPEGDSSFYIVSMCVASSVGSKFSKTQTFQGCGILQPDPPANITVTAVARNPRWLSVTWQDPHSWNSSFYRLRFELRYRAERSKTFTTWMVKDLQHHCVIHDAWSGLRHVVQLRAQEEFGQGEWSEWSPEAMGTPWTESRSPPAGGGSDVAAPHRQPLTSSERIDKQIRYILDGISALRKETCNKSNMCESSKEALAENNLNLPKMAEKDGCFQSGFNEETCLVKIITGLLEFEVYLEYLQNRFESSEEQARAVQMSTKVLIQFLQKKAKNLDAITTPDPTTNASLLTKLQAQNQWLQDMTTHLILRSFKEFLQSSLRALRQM

[5] = target: T5, sIL6R Fc dimer (UniProt P08887 20-358, limits assumed); experiment: SPR Biacore T100, binder captured by anti-human Fc
T5 construct: not shown: Fc
T5 sequence (looked up): T1 sequence (looked up)

[6] = target: T2, hu HIL6 Fc dimer (dimeric human …); experiment: SPR Biacore T100, binder captured by anti-human Fc
Protocol: (§1) Binding affinities and kinetic rate constants of interaction of hyper-IL6 (HIL6; monomer or dimer), and its components IL6 and sIL6R, with different anti-HIL6 binding domains in scFv, SMIP, Xceptor and reverse Xceptor formats were determined using a Biacore® T100 instrument (GE Healthcare, Piscataway, N.J.).
(§2) Anti-HIL6 SMIPS, Xceptors, and reverse Xceptors were captured by a monoclonal mouse anti-human Fc, which was covalently conjugated to a carboxylmethyl dextran (CM4) surface via amines using N-ethyl-N′-(3-dimethylaminopropyl)-carbodiimide hydrochloride and N-hydroxysuccinimide. The unoccupied sites of the activated surface were blocked by ethanolamine. […] In every cycle, three different HIL6 binders were captured on flow cells 2, 3 and 4, while flow cell 1 was used as the reference cell. For each cycle, a single concentration of a single HIL6-related molecule was injected for 150 seconds at 35 microliters per minute, and then allowed to dissociate for 300 seconds. At the end of the cycle, the surface was regenerated gently using 3M MgCl₂, which dissociates protein bound to anti-hFc capture antibody. Multiple cycles were performed to study binding of monomeric or dimeric HIL6 at different concentrations, in the range of 0-100 nM, for each set of three HIL6 binders captured. […] The experiment was performed at 25° C. Signal associated with binding to the reference cell was used to subtract for bulk refractive changes and blank (buffer-only) injections were used to correct for drift and system noise. The kinetic parameters and affinities were determined using BIAevaluation software. Anti-HIL6 scFv molecules were analyzed in the reverse orientation using a dimeric human HIL6/mouse IgG Fc fusion protein captured by an immobilized rabbit polyclonal anti-mouse IgG Fc antibody on the surface and injecting different concentrations of scFv over the surface. For the HIL6 components IL6 (eBioscience, catalog no. 14-8069) and sIL6R, a single 100 nM injection was performed to obtain a qualitative assessment of binding.

[7] = target: T4, hu HIL6 AFH monomer; experiment: SPR Biacore T100, binder captured by anti-human Fc
Protocol: as §1, §2

[8] = target: T5, sIL6R Fc dimer; experiment: SPR Biacore T100, binder captured by anti-human Fc; remark: listed apart in the source
Protocol: as §1, §2

[9] = target: T6, recombinant human IL6 (human, UniProt P05231 30-212); experiment: SPR Biacore T100, binder captured by anti-human Fc
T6 construct: also called rhIL6; IL6 monomer

[10] = target: T6, recombinant human IL6; experiment: SPR Biacore T100, binder captured by anti-human Fc; remark: listed apart in the source
Protocol: as §1, §2

[11] = target: T7, IL6:sIL6R complex (human, UniProt P05231 30-212; P08887 20-358); experiment: SPR Biacore, SMIP captured by anti-human Fc, complex injected
T7 construct: Non-covalent complex made by mixing 50 nM of each; about 30 nM complex estimated
Protocol: In every cycle, three different HIL6 binders were captured on flow cells 2, 3 and 4, while flow cell 1 was used as the reference cell. For each cycle, a single concentration of a single HIL6-related molecule was injected for 150 seconds at 35 microliters per minute, and then allowed to dissociate for 300 seconds. At the end of the cycle, the surface was regenerated gently using 3M MgCl₂, which dissociates protein bound to anti-hFc capture antibody. Multiple cycles were performed to study binding of monomeric or dimeric HIL6 at different concentrations, in the range of 0-100 nM, for each set of three HIL6 binders captured. […] The experiment was performed at 25° C. Signal associated with binding to the reference cell was used to subtract for bulk refractive changes and blank (buffer-only) injections were used to correct for drift and system noise. The kinetic parameters and affinities were determined using BIAevaluation software. Anti-HIL6 scFv molecules were analyzed in the reverse orientation using a dimeric human HIL6/mouse IgG Fc fusion protein captured by an immobilized rabbit polyclonal anti-mouse IgG Fc antibody on the surface and injecting different concentrations of scFv over the surface. For the HIL6 components IL6 (eBioscience, catalog no. 14-8069) and sIL6R, a single 100 nM injection was performed to obtain a qualitative assessment of binding.

[12] = target: T3, recombinant human TNF-α; experiment: sandwich ELISA, HIL-6 coated, Xceptor, then TNF-α
Protocol: The plate was covered, and incubated overnight at 4° C. […] The absorbance of each well was read at 450 nm.

binding result [1]: no binding (tested: 75 pM sIL-6R) | Kd [2]: 61 nM | Kd [3]: 0.0031 nM | Kd [4]: 4.9 nM | binding result [5]: no binding (tested: 100 nM)
B1: TRU(XT6)-1002 (Fc fusion)
chain: LPAQVAFTPYAPEPGSTCRLREYYDQTAQMCCSKCSPGQHAKVFCTKTSDTVCDSCEDSTYTQLWNWVPECLSCGSRCSSDQVETQACTREQNRICTCRPGWYCALSKQEGCRLCAPLRKCRPGFGVARPGTETSDVVCKPCAPGTFSNTTSSTDICRPHQICNVVAIPGNASMDAVCTSTSPTRSMAPGAVHLPQPVSTRSQHTQPTPEPSTAPSTSFLLPMGPSPPAEGSTGDTGEPKSSDKTHTCPPCPAPEAAGAPSVFLFPPKPKDTLMISRTPEVTCVVVDVSHEDPEVKFNWYVDGVEVHNAKTKPREEQYNSTYRVVSVLTVLHQDWLNGKAYACAVSNKALPAPIEKTISKAKGQPREPQVYTLPPSRDELTKNQVSLTCLVKGFYPSDIAVEWESNGQPENNYKTTPPVLDSDGSFFLYSKLTVDKSRWQQGNVFSCSVMHEALHNHYTQKSLSLSPGQRHNNSSLNTRTQKARHSPNSEVQLLESGGGLVQPGGSLRLSCAASGFTFSFYQMHWVRQAPGKGLEWVSGIYPSGGYTKYADSVKGRFTISRDNSKNTLYLQMNSLRAEDTAVYYCARDLGYGSSWYYFDYWGQGTLVTVSSGGGGSGGGGSGGGGSQSALTQPASVSGSPGQSITISCSGTDSDVGGYNHVSWYQQHPGKAPKLIIYDVDHRPSGISNRFSGSKSGNTASLTISGLQAEDEADYYCSSYRSGSTYVFGTGTKVTVL
notes: The entry holds a signal peptide that the mature protein lacks

Kd [6]: 2.7 nM | Kd [7]: 2 nM | binding result [8]: no binding (tested: 100 nM) | Kd [9]: 0.44 nM
B2: TRU(S6)-1019 (Fc fusion)
chain: EVQLLESGGGLVQPGGSLRLSCAASGFTFSWYLMHWVRQAPGKGLEWVSGIWPSGGHTLYADSVKGRFTISRDNSKNTLYLQMNSLRAEDTAVYYCAREPLLWFGELSYNWFDPWGQGTLVTVSSGGGGSGGGGSGGGGSQDIQMTQSPSSVSASVGDRVTITCRASQGISSWLAWYQQKPGKAPKLLIYAASSLQSGVPSRFSGSGSGTDFTLTISSLQPEDFATYYCQQANSFPLTFGGGTKVEIKTGEPKSSDKTHTCPPCPAPEAAGAPSVFLFPPKPKDTLMISRTPEVTCVVVDVSHEDPEVKFNWYVDGVEVHNAKTKPREEQYNSTYRVVSVLTVLHQDWLNGKAYACAVSNKALPAPIEKTISKAKGQPREPQVYTLPPSRDELTKNQVSLTCLVKGFYPSDIAVEWESNGQPENNYKTTPPVLDSDGSFFLYSKLTVDKSRWQQGNVFSCSVMHEALHNHYTQKSLSLSPGK
notes: SMIP (scFv - linker - CH2CH3)

binding result [10]: no binding (tested: 100 nM) | Kd [6]: 1.3 nM | Kd [7]: 2 nM | binding result [11]: binds
B3: TRU(S6)-1002 (Fc fusion)
chain: EVQLLESGGGLVQPGGSLRLSCAASGFTFSFYQMHWVRQAPGKGLEWVSGIYPSGGYTKYADSVKGRFTISRDNSKNTLYLQMNSLRAEDTAVYYCARDLGYGSSWYYFDYWGQGTLVTVSSGGGGSGGGGSGGGGSQSALTQPASVSGSPGQSITISCSGTDSDVGGYNHVSWYQQHPGKAPKLIIYDVDHRPSGISNRFSGSKSGNTASLTISGLQAEDEADYYCSSYRSGSTYVFGTGTKVTVLTGEPKSSDKTHTCPPCPAPEAAGAPSVFLFPPKPKDTLMISRTPEVTCVVVDVSHEDPEVKFNWYVDGVEVHNAKTKPREEQYNSTYRVVSVLTVLHQDWLNGKAYACAVSNKALPAPIEKTISKAKGQPREPQVYTLPPSRDELTKNQVSLTCLVKGFYPSDIAVEWESNGQPENNYKTTPPVLDSDGSFFLYSKLTVDKSRWQQGNVFSCSVMHEALHNHYTQKSLSLSPGK
notes: SMIP (scFv - linker - CH2CH3); also called S6-A2

binding result [12]: binds
B4: TRU(XT6)-1006 (Fc fusion)
chain: LPAQVAFTPYAPEPGSTCRLREYYDQTAQMCCSKCSPGQHAKVFCTKTSDTVCDSCEDSTYTQLWNWVPECLSCGSRCSSDQVETQACTREQNRICTCRPGWYCALSKQEGCRLCAPLRKCRPGFGVARPGTETSDVVCKPCAPGTFSNTTSSTDICRPHQICNVVAIPGNASMDAVCTSTSPTRSMAPGAVHLPQPVSTRSQHTQPTPEPSTAPSTSFLLPMGPSPPAEGSTGDTGEPKSSDKTHTCPPCPAPEAAGAPSVFLFPPKPKDTLMISRTPEVTCVVVDVSHEDPEVKFNWYVDGVEVHNAKTKPREEQYNSTYRVVSVLTVLHQDWLNGKAYACAVSNKALPAPIEKTISKAKGQPREPQVYTLPPSRDELTKNQVSLTCLVKGFYPSDIAVEWESNGQPENNYKTTPPVLDSDGSFFLYSKLTVDKSRWQQGNVFSCSVMHEALHNHYTQKSLSLSPGQRHNNSSLNTRTQKARHSPNSEVQLLESGGGLVQPGGSLRLSCAASGFTFSQYNMIWVRQAPGKGLEWVSWISSSGGTEYADSVKGRFTISRDNSKNTLYLQMNSLRAEDTAVYYCAKDRGYGSGSYGAYDAFDIWGQGTMVTVSSGGGGSGGGGSGGGGSQDIQMTQSPSSLSASVGDRVTITCQTSQSIDRYLNWYQQKAGEAPKLLIYAASSLQSGVPSRFSGSGSGTDFTLTISSLQPEDFASYYCQQSYRTPRTFGQGTKVEIK
notes: Xceptor, TNFRSF1B ectodomain N-terminal, anti-IL6xR domain C-terminal
